# Reference: the Human Domainome abundance scans (Beltran et al. 2025)
# ± gives the uncertainty stated by the source.
# B1: Unconventional myosin-Ie, residues 1051 to 1108; numbered along this chain, Q12965 (parent)
# chain: PQVPQCKALYAYDAQDTDELSFNANDIIDIIKEDPSGWWTGRLRGKQGLFPNNYVTKI
# Variants of: B1
# Experiment: abundance fitness (aPCA) (normalised: wild type 0, dead -1); higher = more abundant; growth selection in yeast, the domain comes from the species named
# Conditions: Homo sapiens
row,Variant,abundance fitness
1,PQVPQCKALYAYDAQDTDELSFNENDIIDIIKEDPSGWWTGRLRGKQGLFPNNYVTKI [A24E],-0.052 ± 0.054
2,PQVPQCKALYAYDAQDTDELSFNRNDIIDIIKEDPSGWWTGRLRGKQGLFPNNYVTKI [A24R],-0.068 ± 0.044
3,PQVPQCKALYAYDAQDTDELSFNSNDIIDIIKEDPSGWWTGRLRGKQGLFPNNYVTKI [A24S],-0.108 ± 0.053
4,PQVPQCKALYAYDAQDTDELSFNDNDIIDIIKEDPSGWWTGRLRGKQGLFPNNYVTKI [A24D],-0.477 ± 0.15
5,PQVPQCKALYAYDAQDTDELSFNTNDIIDIIKEDPSGWWTGRLRGKQGLFPNNYVTKI [A24T],-0.012 ± 0.041
6,PQVPQCKALYAYDAQDTDELSFNVNDIIDIIKEDPSGWWTGRLRGKQGLFPNNYVTKI [A24V],-0.05 ± 0.034
7,PQVPQCKALYAYDAQDTDELSFNNNDIIDIIKEDPSGWWTGRLRGKQGLFPNNYVTKI [A24N],-0.648 ± 0.29
8,PQVPQCKALYAYDAQDTDELSFNINDIIDIIKEDPSGWWTGRLRGKQGLFPNNYVTKI [A24I],-0.04 ± 0.061
9,PQVPQCKALYAYDAQDTDELSFNFNDIIDIIKEDPSGWWTGRLRGKQGLFPNNYVTKI [A24F],-0.106 ± 0.1
10,PQVPQCKALYAYDAQDTDELSFNHNDIIDIIKEDPSGWWTGRLRGKQGLFPNNYVTKI [A24H],-0.06 ± 0.12
11,PQVPQCKALYAYDAQDTDELSFNYNDIIDIIKEDPSGWWTGRLRGKQGLFPNNYVTKI [A24Y],-0.528 ± 0.18
12,PQVPQCKALYAYDAQDTDELSFNMNDIIDIIKEDPSGWWTGRLRGKQGLFPNNYVTKI [A24M],-0.034 ± 0.074
13,PQVPQCKALYAYDAQDTDELSFNKNDIIDIIKEDPSGWWTGRLRGKQGLFPNNYVTKI [A24K],-0.04 ± 0.045
14,PQVPQCKALYAYDAQDTDELSFNCNDIIDIIKEDPSGWWTGRLRGKQGLFPNNYVTKI [A24C],-0.213 ± 0.1
15,PQVPQCKALYAYDAQDTDELSFNQNDIIDIIKEDPSGWWTGRLRGKQGLFPNNYVTKI [A24Q],-0.164 ± 0.07
16,PQVPQCKALYAYDAQDTDELSFNWNDIIDIIKEDPSGWWTGRLRGKQGLFPNNYVTKI [A24W],-0.481 ± 0.077
17,PQVPQCKALYAYDAQDTDELSFNASDIIDIIKEDPSGWWTGRLRGKQGLFPNNYVTKI [N25S],-0.088 ± 0.038
18,PQVPQCKALYAYDAQDTDELSFNARDIIDIIKEDPSGWWTGRLRGKQGLFPNNYVTKI [N25R],-0.142 ± 0.033
19,PQVPQCKALYAYDAQDTDELSFNADDIIDIIKEDPSGWWTGRLRGKQGLFPNNYVTKI [N25D],-0.048 ± 0.068
20,PQVPQCKALYAYDAQDTDELSFNAWDIIDIIKEDPSGWWTGRLRGKQGLFPNNYVTKI [N25W],-0.224 ± 0.056
21,PQVPQCKALYAYDAQDTDELSFNAIDIIDIIKEDPSGWWTGRLRGKQGLFPNNYVTKI [N25I],-0.833 ± 0.075
22,PQVPQCKALYAYDAQDTDELSFNATDIIDIIKEDPSGWWTGRLRGKQGLFPNNYVTKI [N25T],-0.215 ± 0.065
23,PQVPQCKALYAYDAQDTDELSFNAFDIIDIIKEDPSGWWTGRLRGKQGLFPNNYVTKI [N25F],-0.302 ± 0.063

row,Variant,abundance fitness
1,PQVPQCKALYAYDAQDTDELSFNAADIIDIIKEDPSGWWTGRLRGKQGLFPNNYVTKI [N25A],-0.129 ± 0.054
2,PQVPQCKALYAYDAQDTDELSFNAKDIIDIIKEDPSGWWTGRLRGKQGLFPNNYVTKI [N25K],-0.198 ± 0.064
3,PQVPQCKALYAYDAQDTDELSFNAPDIIDIIKEDPSGWWTGRLRGKQGLFPNNYVTKI [N25P],-0.878 ± 0.12
4,PQVPQCKALYAYDAQDTDELSFNAQDIIDIIKEDPSGWWTGRLRGKQGLFPNNYVTKI [N25Q],-0.058 ± 0.054
5,PQVPQCKALYAYDAQDTDELSFNAGDIIDIIKEDPSGWWTGRLRGKQGLFPNNYVTKI [N25G],-0.046 ± 0.041
6,PQVPQCKALYAYDAQDTDELSFNAHDIIDIIKEDPSGWWTGRLRGKQGLFPNNYVTKI [N25H],-0.19 ± 0.082
7,PQVPQCKALYAYDAQDTDELSFNAMDIIDIIKEDPSGWWTGRLRGKQGLFPNNYVTKI [N25M],-0.151 ± 0.051
8,PQVPQCKALYAYDAQDTDELSFNAVDIIDIIKEDPSGWWTGRLRGKQGLFPNNYVTKI [N25V],-0.753 ± 0.073
9,PQVPQCKALYAYDAQDTDELSFNAEDIIDIIKEDPSGWWTGRLRGKQGLFPNNYVTKI [N25E],-0.117 ± 0.064
10,PQVPQCKALYAYDAQDTDELSFNAYDIIDIIKEDPSGWWTGRLRGKQGLFPNNYVTKI [N25Y],-0.541 ± 0.11
11,PQVPQCKALYAYDAQDTDELSFNANDIIEIIKEDPSGWWTGRLRGKQGLFPNNYVTKI [D29E],-0.072 ± 0.044
12,PQVPQCKALYAYDAQDTDELSFNANDIIWIIKEDPSGWWTGRLRGKQGLFPNNYVTKI [D29W],-0.312 ± 0.068
13,PQVPQCKALYAYDAQDTDELSFNANDIIYIIKEDPSGWWTGRLRGKQGLFPNNYVTKI [D29Y],-0.285 ± 0.096
14,PQVPQCKALYAYDAQDTDELSFNANDIIKIIKEDPSGWWTGRLRGKQGLFPNNYVTKI [D29K],-0.555 ± 0.12
15,PQVPQCKALYAYDAQDTDELSFNANDIIRIIKEDPSGWWTGRLRGKQGLFPNNYVTKI [D29R],-0.387 ± 0.032
16,PQVPQCKALYAYDAQDTDELSFNANDIISIIKEDPSGWWTGRLRGKQGLFPNNYVTKI [D29S],-0.185 ± 0.055
17,PQVPQCKALYAYDAQDTDELSFNANDIIQIIKEDPSGWWTGRLRGKQGLFPNNYVTKI [D29Q],-0.241 ± 0.067
18,PQVPQCKALYAYDAQDTDELSFNANDIIFIIKEDPSGWWTGRLRGKQGLFPNNYVTKI [D29F],-0.408 ± 0.062
19,PQVPQCKALYAYDAQDTDELSFNANDIIHIIKEDPSGWWTGRLRGKQGLFPNNYVTKI [D29H],-0.193 ± 0.12
20,PQVPQCKALYAYDAQDTDELSFNANDIIIIIKEDPSGWWTGRLRGKQGLFPNNYVTKI [D29I],-0.345 ± 0.15
21,PQVPQCKALYAYDAQDTDELSFNANDIITIIKEDPSGWWTGRLRGKQGLFPNNYVTKI [D29T],-0.062 ± 0.039
22,PQVPQCKALYAYDAQDTDELSFNANDIIPIIKEDPSGWWTGRLRGKQGLFPNNYVTKI [D29P],-1.03 ± 0.41
